From patent US20210032343A1 (published 2021) come the findings set out here.

Experiment [1] concerns the target recombinant human PD-1 (product No. 10377-H08H, Beijing Yiqiao Shenzhou) (human, UniProt Q15116 25-167). The experiment in a line: ELISA.
Experiment [2] has as its target T1, recombinant human PD-1-Fc (human, UniProt Q15116 25-167). The experiment in a line: competition ELISA; blocking PD-1/PD-L1.
The target in experiment [3] is T1, recombinant human PD-1-Fc. The experiment in a line: competition ELISA; blocking PD-1/PD-L2.

T1 sequence (Q15116 25-167): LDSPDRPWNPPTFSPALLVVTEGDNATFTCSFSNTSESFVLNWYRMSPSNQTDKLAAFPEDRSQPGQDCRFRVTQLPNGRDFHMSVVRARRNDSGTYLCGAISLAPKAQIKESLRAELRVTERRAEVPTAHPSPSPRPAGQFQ
Chain of recombinant human PD-1 (product No. 10377-H08H, Beijing Yiqiao Shenzhou) (Q15116 25-167): as above

B1: PD-1 monoclonal antibody (antibody, V domains shown)
VH: QVQLVQSGAEVKKPGSSVKVSCKASGGTFSSTAISWVRQAPGQGLEWMGGIWPSFGTASYAQKFQGRVTITADESTSTAYMELSSLRSEDTAVYYCARAEYSSTGIFDYWGQGTLVTVSS
VL: DIQMTQSPSSVSASVGDRVTITCRASQGISSWLAWYQQKPGKAPKLLISAASSLQSGVPSRFSGSGSGTDFTLTISSLQPEDFATYYCQQANHLPFTFGGGTKVEIK
Regarding B1, in experiment [1], the EC50 amounted to 0.18 nM. The IC50 is 2.71 nM in experiment [2] and 2.89 nM in experiment [3].
